The source of these data is patent US6956022B2, “Agents for preventing and treating thrombocytopenia” (Chugai Seiyaku Kabushiki Kaisha, priority 1996, dated 2005).

The subject of experiment [1] is CFU-GM (precursor cells of granulocytes and macrophages). The conditions noted are these: cited from earlier work.
The test system of the next experiment is platelet counts. Briefly: Test for single-dose administration to mouse (peripheral platelet count). It counts as in vivo. The note with it: C57B1/6N mice, single dose 10 μg/kg through the tail vein, 6 and 9 h after the administration. As to the method:
Test for Single-dose Administration to Mouse
Nine-week old male C57B1/6N mice as purchased from Japan Charles River Co. Ltd. were used in the experiment.
Human PTH(1-84) was dissolved in a citrate buffer (pH 5; containing 0.05% of Tween 80) at final concentrations of 1, 0.2 and 0.04 ˜g/mL so as to prepare the drug solutions to be administered.
Each of the thus prepared drug solutions and a control (citrate buffer) was administered to 15 mice through the tail vein in a volume of 10 mL/kg. […] The administration was initiated at 10 a.m.
After 3, 6 and 9 hours of the administration, five mice were picked up at random from each group of animals and blood samples were withdrawn through the orbital vein. At 10 a.m. on the same day, separate blood samples were taken from untreated mice (four in number) to obtain the preadministration value. Peripheral corpuscle counts were obtained with an automatic corpuscle counter F-800 (TOA MEDICAL ELECTRONICS CO., LTD.)

In experiment [2] the test system is platelet count. In words: Test for daily administration to rabbit (platelet count). It counts as in vivo. The note with it: rabbits, 200 μg/kg subcutaneous daily. The procedure: Test for Daily Administration to Rabbit
Six 12-15 week old male Japanese albino rabbits JW/CSK were used in the experiment. The animals were individually kept in aluminum rabbit bracket cages Rb-1 (350^w×500^d×350^h mm) in a vavarium in a specific pathogen-free environment under the following conditions: temperature, 24±2° C.; humidity, 50±10%; illumination, light turned on at 5:00 and turned off at 19:00; ventilation, 15 changes/hr. Each animal was supplied with 120 g of a radiation-sterilized feed for rabbits RM (purchased from Funahashi Farm) per day. The animals were also allowed to drink to tap water ad libitum from an automatic water feeder.
Human PTH(1-84) was administered in a volume of 2 mL/vial at a concentration of 200 μg/mL. A solvent was also supplied in a volume of 2 mL/vial. Both the drug and the control were stored at −135° C. until use.
PTH (200 μg/kg) was administered to the rabbits subcutaneously at the back of their neck for 13 consecutive days. The solvent was similarly administered in the same volume as the dose of a rh-PTH solution calculated from their body weight.
Blood samples (0.5 mL) were withdrawn from the rabbits through the lateral auricular vein before the administration and on days 2, 6, 9 and 13 during the administration period. […]

Experiment [3] relates to BFU-E (precursor cells of erythrocytes). The note with it: cited from earlier work.
Experiment [4] has as its system platelet count. In words: Test for daily administration to mouse (peripheral platelet count). Format: in vivo. The conditions noted are these: C57B1/6N mice, subcutaneous once a day. The procedure: Test for Daily Administration to Mouse
Nine-week old male C57B1/6N mice as purchased from Japan Charles River Co., Ltd. were used in the experiment.
Drug solutions to be administered were prepared basically by the same procedure as in Example 1 to give drug concentrations of 5, 20 and 80 μg/mL.
The mice under test were divided into four groups, which were administered subcutaneously with the three drug solutions and a control (citrate buffer) once a day in a volume of 10 mL/kg. […] The administration was initiated at 10 a.m.
On days 5, 7 and 9 after the start of administration, five or six mice were picked up at random from each group of animals and blood samples were withdrawn through the orbital vein. The sampling of blood was timed to occur 24 h of the final administration. Separate blood samples were taken from untreated mice (five in number) to obtain the value for normal mouse. Peripheral corpuscle counts were obtained with an automatic corpuscle counter F-800(TOA MEDICAL ELECTRONICS CO., LTD.).

B1: human PTH(1-84) (protein, UniProt P01270 32-115, looked up)
Parathyroid hormone: SVSEIQLMHNLGKHLNSMERVEWLRKKLQDVHNFVALGAPLAPRDAGSQRPRKKEDNVLVESHEKSLGEADKADVNVLTKAKSQ
modifications: Parathyroid hormone
As to B1, the “in vitro colony formation by CFU-GM” value in experiment [1] is “interfered with”. Besides, the “platelet counts versus control” value with platelet counts is “significant increase in platelet counts over the control”. For the same molecule, the “platelet count relative to the initial level” value with platelet count [2] (day 13) was “substantially returned to the initial level”. For the same molecule, the “platelet count relative to the initial value” with platelet count [2] (increase from day 2 until day 6) is “two to four times as great as the initial value”. Also, the “in vitro colony formation by BFU-E” value in experiment [3] is listed as “interfered with”. Moreover, the “platelet count versus control” value in the experiment on platelet count [4] (all treated groups (50, 200 and 800 μg/kg), day 7) is “significantly higher in platelet count than the control”; with platelet count [4] (groups administered 200 and 800 μg/kg, day 5), “tendency to increase”.
